Measurements: US20220040266A1

Biological target: growth hormone receptor (GHR) on pancreatic cancer cells (human) (UniProt P10912)
Assay: cell-based or functional assay

Sequence of UniProt P10912 (P10912 19-638): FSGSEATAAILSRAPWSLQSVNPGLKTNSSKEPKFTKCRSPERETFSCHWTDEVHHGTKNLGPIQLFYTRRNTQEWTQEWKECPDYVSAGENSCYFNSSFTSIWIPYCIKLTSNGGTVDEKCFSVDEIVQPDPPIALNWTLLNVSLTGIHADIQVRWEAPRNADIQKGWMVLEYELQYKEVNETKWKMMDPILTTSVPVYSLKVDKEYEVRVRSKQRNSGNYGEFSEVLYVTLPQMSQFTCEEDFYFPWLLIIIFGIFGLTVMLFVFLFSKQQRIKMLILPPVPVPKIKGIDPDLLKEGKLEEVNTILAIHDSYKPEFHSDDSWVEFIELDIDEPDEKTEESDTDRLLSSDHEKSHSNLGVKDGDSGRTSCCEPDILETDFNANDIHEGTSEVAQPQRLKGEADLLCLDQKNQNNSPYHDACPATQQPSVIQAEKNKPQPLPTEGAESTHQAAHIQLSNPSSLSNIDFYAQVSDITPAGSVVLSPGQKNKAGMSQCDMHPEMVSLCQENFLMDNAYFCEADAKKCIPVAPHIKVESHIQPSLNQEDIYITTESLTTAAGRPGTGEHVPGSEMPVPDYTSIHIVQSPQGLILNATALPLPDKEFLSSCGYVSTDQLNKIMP

Substance | drug efflux rate (DiOC2 dye), pancreatic cancer cells, 120 minutes [fold] | percentage of drug retention after 120 minutes, pancreatic cancer cells [%]
Compound G (hGHR antagonist hGH-G120K having T142 and H151 changed to cysteine and having both added cysteines conjugated with dPEG-A) (from UniProt P01241 27-217) (ligand) | 2 | 83
pegvisomant (SOMAVERT) (ligand) | 2 | 83
